Experimental data: article PMC8571288

How the values were obtained:
[1] = target: CST complex (CTC1-STN1-TEN1) (Homo sapiens, UniProt Q2NKJ3;Q9H668;Q86WV5 1-1217;1-368;1-123); assay: pull-down; RPA-coated DNA, 50 mM KCl; smFRET: 25 mM Tris-HCl pH 7.5, 0.5 mM EDTA, 10% glycerol, 50 or 150 mM KCl (temperature not stated); pull-down: 35 mM Tris-HCl pH 7.5, 10% glycerol, 0.01% Igepal, 1 mM 2-ME, 1 mM ATP, 2.5 mM MgCl2, 50 or 150 mM KCl, 37 C; EMSA: 35 mM Tris-HCl pH 7.5, 1 mM DTT, 2.5 mM MgCl2, 100 ng/uL BSA, 50 mM KCl, 37 C; settings: protein: recombinant; tags: FLAG-CTC1, TEN1-His6; copies: 1;1;1; label: 5' biotin, on streptavidin beads
Chain of CST complex (CTC1-STN1-TEN1) (Q2NKJ3 whole entry, chain 1 of 3): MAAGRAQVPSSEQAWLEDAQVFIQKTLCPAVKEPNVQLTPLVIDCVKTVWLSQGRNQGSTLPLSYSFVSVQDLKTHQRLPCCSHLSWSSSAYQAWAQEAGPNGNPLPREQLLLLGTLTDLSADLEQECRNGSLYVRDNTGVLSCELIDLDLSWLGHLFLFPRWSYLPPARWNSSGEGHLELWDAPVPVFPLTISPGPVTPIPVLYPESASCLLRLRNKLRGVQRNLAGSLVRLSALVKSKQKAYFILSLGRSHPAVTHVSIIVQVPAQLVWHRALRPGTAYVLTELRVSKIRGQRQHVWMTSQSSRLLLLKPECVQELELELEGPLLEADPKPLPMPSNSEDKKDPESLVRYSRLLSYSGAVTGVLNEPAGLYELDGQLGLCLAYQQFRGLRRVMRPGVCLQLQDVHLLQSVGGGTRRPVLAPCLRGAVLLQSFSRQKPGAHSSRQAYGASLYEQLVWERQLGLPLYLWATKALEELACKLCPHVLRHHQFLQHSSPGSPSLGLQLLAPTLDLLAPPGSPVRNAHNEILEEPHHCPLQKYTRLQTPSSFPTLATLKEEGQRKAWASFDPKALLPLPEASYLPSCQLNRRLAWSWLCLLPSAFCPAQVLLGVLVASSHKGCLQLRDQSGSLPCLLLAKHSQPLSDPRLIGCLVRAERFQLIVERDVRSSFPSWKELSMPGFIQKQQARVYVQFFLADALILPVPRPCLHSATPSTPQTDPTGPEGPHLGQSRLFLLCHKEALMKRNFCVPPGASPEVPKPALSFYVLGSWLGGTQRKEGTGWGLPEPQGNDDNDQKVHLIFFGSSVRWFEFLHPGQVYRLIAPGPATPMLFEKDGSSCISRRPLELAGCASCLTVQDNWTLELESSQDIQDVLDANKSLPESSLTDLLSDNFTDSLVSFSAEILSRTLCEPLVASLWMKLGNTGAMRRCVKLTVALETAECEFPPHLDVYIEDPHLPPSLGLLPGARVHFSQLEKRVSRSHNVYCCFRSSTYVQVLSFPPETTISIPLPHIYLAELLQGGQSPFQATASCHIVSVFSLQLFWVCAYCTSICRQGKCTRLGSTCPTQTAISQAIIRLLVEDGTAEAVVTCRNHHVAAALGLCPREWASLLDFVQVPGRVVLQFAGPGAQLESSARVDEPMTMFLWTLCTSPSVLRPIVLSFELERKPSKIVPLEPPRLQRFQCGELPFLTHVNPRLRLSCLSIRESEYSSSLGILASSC
Chain of CST complex (CTC1-STN1-TEN1) (Q9H668 whole entry, chain 2 of 3): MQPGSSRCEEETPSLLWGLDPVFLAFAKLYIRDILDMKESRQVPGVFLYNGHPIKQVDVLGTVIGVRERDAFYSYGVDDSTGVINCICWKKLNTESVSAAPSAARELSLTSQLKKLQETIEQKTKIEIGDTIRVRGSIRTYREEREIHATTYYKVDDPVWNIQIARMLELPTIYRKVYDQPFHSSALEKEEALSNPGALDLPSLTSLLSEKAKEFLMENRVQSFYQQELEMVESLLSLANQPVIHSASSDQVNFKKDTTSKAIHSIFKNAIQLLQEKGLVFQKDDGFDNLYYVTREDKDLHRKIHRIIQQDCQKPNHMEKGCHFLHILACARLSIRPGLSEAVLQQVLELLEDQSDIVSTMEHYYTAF
Chain of CST complex (CTC1-STN1-TEN1) (Q86WV5 whole entry, chain 3 of 3): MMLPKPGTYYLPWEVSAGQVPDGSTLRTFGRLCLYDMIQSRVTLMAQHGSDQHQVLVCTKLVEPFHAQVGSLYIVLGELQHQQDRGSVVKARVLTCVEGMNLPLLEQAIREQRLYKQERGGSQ

RPA complex = RPA complex (Homo sapiens, UniProt P27694;P15927;P35244 1-616;1-270;1-121); assay: pull-down; 50 mM KCl; unchanged by CST; smFRET: 25 mM Tris-HCl pH 7.5, 0.5 mM EDTA, 10% glycerol, 50 or 150 mM KCl (temperature not stated); pull-down: 35 mM Tris-HCl pH 7.5, 10% glycerol, 0.01% Igepal, 1 mM 2-ME, 1 mM ATP, 2.5 mM MgCl2, 50 or 150 mM KCl, 37 C; EMSA: 35 mM Tris-HCl pH 7.5, 1 mM DTT, 2.5 mM MgCl2, 100 ng/uL BSA, 50 mM KCl, 37 C; settings: protein: recombinant; copies: 1;1;1; label: 5' biotin, on streptavidin beads
Chain of RPA complex (P27694 whole entry, chain 1 of 3): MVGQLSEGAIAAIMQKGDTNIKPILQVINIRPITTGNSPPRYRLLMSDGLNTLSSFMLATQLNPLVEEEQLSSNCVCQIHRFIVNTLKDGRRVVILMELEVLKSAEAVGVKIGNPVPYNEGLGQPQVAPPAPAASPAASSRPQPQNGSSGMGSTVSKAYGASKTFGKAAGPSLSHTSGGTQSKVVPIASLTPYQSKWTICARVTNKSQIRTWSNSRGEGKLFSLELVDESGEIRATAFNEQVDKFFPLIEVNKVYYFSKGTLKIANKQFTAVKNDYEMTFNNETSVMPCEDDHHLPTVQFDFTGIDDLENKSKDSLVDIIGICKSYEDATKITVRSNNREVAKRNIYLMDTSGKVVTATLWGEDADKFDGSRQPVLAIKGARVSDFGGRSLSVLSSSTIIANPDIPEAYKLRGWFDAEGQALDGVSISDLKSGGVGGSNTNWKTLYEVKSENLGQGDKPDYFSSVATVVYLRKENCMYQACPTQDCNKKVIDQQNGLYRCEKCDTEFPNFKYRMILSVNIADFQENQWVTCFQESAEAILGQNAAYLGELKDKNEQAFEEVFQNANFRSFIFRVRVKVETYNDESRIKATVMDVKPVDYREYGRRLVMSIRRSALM
Chain of RPA complex (P15927 whole entry, chain 2 of 3): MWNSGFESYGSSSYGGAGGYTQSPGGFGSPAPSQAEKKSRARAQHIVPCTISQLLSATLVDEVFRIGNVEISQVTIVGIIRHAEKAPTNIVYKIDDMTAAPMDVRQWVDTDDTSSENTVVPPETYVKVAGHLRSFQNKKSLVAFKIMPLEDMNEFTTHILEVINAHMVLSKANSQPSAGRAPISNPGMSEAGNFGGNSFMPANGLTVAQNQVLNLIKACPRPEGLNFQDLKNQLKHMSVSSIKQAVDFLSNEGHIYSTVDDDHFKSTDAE
Chain of RPA complex (P35244 whole entry, chain 3 of 3): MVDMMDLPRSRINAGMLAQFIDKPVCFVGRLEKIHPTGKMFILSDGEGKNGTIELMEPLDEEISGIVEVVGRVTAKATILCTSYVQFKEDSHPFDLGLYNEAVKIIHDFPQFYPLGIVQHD

RAD51 [2] = target: T1, RAD51 (Homo sapiens, UniProt Q06609 1-339); assay: pull-down; RPA-coated DNA plus CST; smFRET: 25 mM Tris-HCl pH 7.5, 0.5 mM EDTA, 10% glycerol, 50 or 150 mM KCl (temperature not stated); pull-down: 35 mM Tris-HCl pH 7.5, 10% glycerol, 0.01% Igepal, 1 mM 2-ME, 1 mM ATP, 2.5 mM MgCl2, 50 or 150 mM KCl, 37 C; EMSA: 35 mM Tris-HCl pH 7.5, 1 mM DTT, 2.5 mM MgCl2, 100 ng/uL BSA, 50 mM KCl, 37 C; settings: protein: recombinant; chain copies: 10; label: 5' biotin, on streptavidin beads
T1 sequence (Q06609 whole entry): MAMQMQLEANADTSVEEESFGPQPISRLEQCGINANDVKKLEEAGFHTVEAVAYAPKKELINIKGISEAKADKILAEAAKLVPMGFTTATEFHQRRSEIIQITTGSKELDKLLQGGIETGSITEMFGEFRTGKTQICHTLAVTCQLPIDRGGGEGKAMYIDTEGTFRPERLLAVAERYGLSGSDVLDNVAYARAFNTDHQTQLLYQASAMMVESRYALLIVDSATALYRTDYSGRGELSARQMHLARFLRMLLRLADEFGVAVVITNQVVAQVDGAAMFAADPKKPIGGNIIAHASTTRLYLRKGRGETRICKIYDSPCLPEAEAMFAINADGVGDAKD

RAD51 [3] = target: T1, RAD51; assay: negative-stain EM; 150 mM KCl; naked DNA, median filament 96.41 nm; smFRET: 25 mM Tris-HCl pH 7.5, 0.5 mM EDTA, 10% glycerol, 50 or 150 mM KCl (temperature not stated); pull-down: 35 mM Tris-HCl pH 7.5, 10% glycerol, 0.01% Igepal, 1 mM 2-ME, 1 mM ATP, 2.5 mM MgCl2, 50 or 150 mM KCl, 37 C; EMSA: 35 mM Tris-HCl pH 7.5, 1 mM DTT, 2.5 mM MgCl2, 100 ng/uL BSA, 50 mM KCl, 37 C; settings: protein: recombinant; chain copies: 10
SNAP649-CST = SNAP649-CST (Homo sapiens, UniProt Q2NKJ3;Q9H668;Q86WV5 1-1217;1-368;1-123); assay: CoSMoS; EGFP-RPA-coated DNA, 50 mM KCl, 13.5 nM; smFRET: 25 mM Tris-HCl pH 7.5, 0.5 mM EDTA, 10% glycerol, 50 or 150 mM KCl (temperature not stated); pull-down: 35 mM Tris-HCl pH 7.5, 10% glycerol, 0.01% Igepal, 1 mM 2-ME, 1 mM ATP, 2.5 mM MgCl2, 50 or 150 mM KCl, 37 C; EMSA: 35 mM Tris-HCl pH 7.5, 1 mM DTT, 2.5 mM MgCl2, 100 ng/uL BSA, 50 mM KCl, 37 C; settings: protein: recombinant; tags: SNAP (SNAP-Surface 649 label); copies: 1;1;1; label: 5' Cy3 and 3' biotin on Oligo 10; 3' overhang 80 nt
Chain of SNAP649-CST (Q2NKJ3 whole entry, chain 1 of 3): as the sequence (Q2NKJ3 whole entry, chain 1 of 3) above
Chain of SNAP649-CST (Q9H668 whole entry, chain 2 of 3): as the sequence (Q9H668 whole entry, chain 2 of 3) above
Chain of SNAP649-CST (Q86WV5 whole entry, chain 3 of 3): as the sequence (Q86WV5 whole entry, chain 3 of 3) above

EGFP-RPA = EGFP-RPA (Homo sapiens, UniProt P27694;P15927;P35244 1-616;1-270;1-121); assay: CoSMoS; 50 mM KCl, 10 nM; ~85% of DNA foci RPA-bound; 1-4 RPA per DNA; smFRET: 25 mM Tris-HCl pH 7.5, 0.5 mM EDTA, 10% glycerol, 50 or 150 mM KCl (temperature not stated); pull-down: 35 mM Tris-HCl pH 7.5, 10% glycerol, 0.01% Igepal, 1 mM 2-ME, 1 mM ATP, 2.5 mM MgCl2, 50 or 150 mM KCl, 37 C; EMSA: 35 mM Tris-HCl pH 7.5, 1 mM DTT, 2.5 mM MgCl2, 100 ng/uL BSA, 50 mM KCl, 37 C; settings: protein: recombinant; tags: EGFP; copies: 1;1;1; label: 5' Cy3 and 3' biotin on Oligo 10; 3' overhang 80 nt
Chain of EGFP-RPA (P27694 whole entry, chain 1 of 3): as the sequence (P27694 whole entry, chain 1 of 3) above
Chain of EGFP-RPA (P15927 whole entry, chain 2 of 3): as the sequence (P15927 whole entry, chain 2 of 3) above
Chain of EGFP-RPA (P35244 whole entry, chain 3 of 3): as the sequence (P35244 whole entry, chain 3 of 3) above

B1: 80-nt ssDNA, biotinylated Oligo 1 (ssDNA)
DNA: TTATGTTCATTTTTTATATCCTTTACTTTATTTTCTCTGTTTATTCATTTACTTATTTTGTATTATCCTTATCTTATTTA
B1: binds [1]; binds (RPA complex); binds (RAD51 [2]).

B2: 80-nt ssDNA Oligo 1 (ssDNA)
DNA: TTATGTTCATTTTTTATATCCTTTACTTTATTTTCTCTGTTTATTCATTTACTTATTTTGTATTATCCTTATCTTATTTA
B2: binds (RAD51 [3]).

B3: 80-nt ssDNA overhang (Oligo 9+10) (mixed)
DNA 1: TGGCGACGGCAGCGAGGCTTATGTTCATTTTTTATATCCTTTACTTTATTTTCTCTGTTTATTCATTTACTTATTTTGTATTATCCTTATCTTATTTA
DNA 2: GCCTCGCTGCCGTCGCCA
B3: binds (SNAP649-CST); binds (EGFP-RPA).
